Reference: PMC3582384 (Biochemistry, 2013)
Each block holds one molecule with its values, some of them ahead of it.

Key:
RsLOV = RsLOV (Cereibacter sphaeroides, UniProt M1E1F8); assay: X-ray crystallography; format: binding; conditions: dark state, noncovalent; 1.9 Å
[1] = target: A138Y RsLOV variant (Rhodobacter sphaeroides ATCC 17025); assay: SEC
[2] = target: LOV domain protein of Rhodobacter sphaeroides (RsLOV), wild type (Rhodobacter sphaeroides ATCC 17025); assay: SEC

Molecule: Cc1cc2nc3c(=O)[nH]c(=O)nc-3n(C[C@H](O)[C@H](O)[C@H](O)COP(=O)(O)O)c2cc1C [FMN]
X-ray crystallography (RsLOV): The Val32 side chain does not extend as far into the FMN pocket as Leu

stoichiometry N [1]: 2
Molecule: A138Y RsLOV variant (natural protein)

stoichiometry N [2]: 2
Molecule: LOV domain protein of Rhodobacter sphaeroides (RsLOV), wild type (natural protein)
